The values that follow come from publication PMC8808184 (The Journal of Biological Chemistry, 2021).

Sequences and labels used below:
B1: E1 domain of human APLP2 (domain or fragment, UniProt Q06481 46-205, looked up)
chain: AVAEPQIAMFCGKLNMHVNIQTGKWEPDPTGTKSCFETKEEVLQYCQEMYPELQITNVMEANQRVSIDNWCRRDKKQCKSRFVTPFKCLVGEFVSDVLLVPEKCQFFHKERMEVCENHQHWHTVVKEACLTQGMTLYSYGMLLPCGVDQFHGTEYVCCPQ
modifications: biotin (EZ-Link NHS-PEG4-Biotin, 1:1 molar ratio)
notes: human amyloid beta precursor like protein 2, E1 domain; host and tags are those told for the E1 domains in general; source: E. coli Origami2(DE3), purified (as told for the E1 domains)
B2: FN1–FN3 region of human CNTN4 (domain or fragment, UniProt Q8IWV2 599-899, looked up)
chain: PPEAVTIDEITDTTAQLSWRPGPDNHSPITMYVIQARTPFSVGWQAVSTVPELIDGKTFTATVVGLNPWVEYEFRTVAANVIGIGEPSRPSEKRRTEEALPEVTPANVSGGGGSKSELVITWETVPEELQNGRGFGYVVAFRPYGKMIWMLTVLASADASRYVFRNESVHPFSPFEVKVGVFNNKGEGPFSPTTVVYSAEEEPTKPPASIFARSLSATDIEVFWASPLEKNRGRIQGYEVKYWRHEDKEENARKIRTVGNQTSTKITNLKGSVLYHLAVKAYNSAGTGPSSATVNVTTRKP
notes: human contactin 4, FN1–FN3; source: E. coli BL21(DE3), purified (IMAC, 3C protease cleavage, ion exchange, gel filtration)

Experiment in all cases: BLI; biotinylated E1 domain ([…] nM) immobilised on streptavidin tips, CNTN FN1–FN3 in solution; room temperature; 150 mM NaCl, 10 mM Na-Hepes pH 7.5, 1 mg/ml BSA, 0.02% Tween-20; BLItz or Octet K2; KD from the signal at equilibrium
Holding throughout (settings): both partners purified
(Biolayer interferometry detects binding as a change in optical thickness at a sensor tip.)

In assay [1] the target is T1, FN1–FN3 region of CNTN5 titrated against human APLP1(E1) and human APLP2(E1) ( (chicken, human, mouse and …, UniProt O94779 673-972)).
T1 construct: contactin 5, FN1–FN3; source: E. coli BL21(DE3), purified (IMAC, 3C protease cleavage, ion exchange, gel filtration)
T1 sequence (looked up): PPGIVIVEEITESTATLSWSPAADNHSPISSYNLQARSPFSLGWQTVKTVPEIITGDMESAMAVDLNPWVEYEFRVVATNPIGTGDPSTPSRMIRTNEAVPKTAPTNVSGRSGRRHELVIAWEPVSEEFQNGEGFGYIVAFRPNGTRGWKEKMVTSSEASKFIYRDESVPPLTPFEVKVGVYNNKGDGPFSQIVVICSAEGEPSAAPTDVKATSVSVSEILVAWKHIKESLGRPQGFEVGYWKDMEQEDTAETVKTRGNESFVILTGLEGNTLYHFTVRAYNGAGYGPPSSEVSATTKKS

Assay [2] deals with B2.
The assay “E1 domain of human APLP2” deals with B1.

The term Kd denotes the constant that tells how readily two partners part at equilibrium. Low readings indicate tighter binding, high ones weaker binding. On to B1, for which the Kd was around 38 µM in assay [1] and 6.3 µM in assay [2]. For the molecule B2, the “fold decrease in affinity against human CNTN4 with APLP1” value in the assay with E1 domain of human APLP2 was 4 fold.
